Assay results reported in patent publication US20260062487A1 (GRITSTONE BIO, published 2026).
Read-outs that look alike come from different tables or passages of the source.

What was measured:
[1] = target: T1, HLA-A*01:01 with … (ERGIC3) from cells (human); assay: IP-MS, K562-A*01:01 lysate (ND: Not detected; W6/32 recovers the peptide)
T1 construct: whole, on cells
Experimental: (§1) 2×10⁸ cells expressing A*01:01/CT83 (NCI-H1703, A375±CT83) were re-suspended in 5 ml lysis buffer (1% CHAPS, 150 mM sodium chloride, 20 mM Tris pH 8) in the presence of phosphatase, and protease inhibitors. The cells were homogenized by sonication, rotated at 4° C. for 1 hr, and spun at 21,000×g for 30 min. to pellet cell debris.
(§2) After immunoprecipitation, the IP beads were isolated using filter plates, then washed to remove non-specific binding using Tris pH 8 buffers with increasing levels of NaCl. The HLA/peptide complex was eluted from the beads using 2N acetic acid. The protein components were removed from the peptides using C18 fractionation. The resultant peptides were taken to dryness by SpeedVac evaporation and stored at −20° C. prior to MS analysis.

[2] = target: T2, HLA-PEPTIDE target A*01:01_… (G2) on cells (human); assay: IP-MS, NCI-H1703 lysate, Rep1
T2 construct: whole, on cells; also recovered from cell lysates in the IP-MS experiment; also called G2 pHLA; G2 target
Experimental: as §1, §2

[3] = target: T1, HLA-A*01:01 with … (ERGIC3) from cells; assay: IP-MS, NCI-H1703 lysate, Rep1
Experimental: as §1, §2

[4] = target: T3, off-target HLA-A*01:01_… (ICE1) on cells (human); assay: IP-MS, NCI-H1703 lysate, Rep1
T3 construct: whole, on cells; also called … (IC1); validated OTLA
Experimental: as §1, §2

[5] = target: T4, off-target HLA-A*01:01_… (PTS) on cells (human); assay: IP-MS, NCI-H1703 lysate, Rep1
T4 construct: whole, on cells; also called validated OTLA; Control peptide-3
Experimental: as §1, §2

CD3 on CD3+ Jurkat cells [6] = target: T5, CD3 on CD3+ Jurkat cells (human, UniProt P07766 23-207); assay: flow cytometry, anti IgG PE, CD3+ Jurkat cells
T5 construct: whole, on cells
Experimental: Increasing concentrations of the antibodies were incubated with CD3(+) and CD9(−) Jurkat cells. Binding was determined by flow cytometery using an anti IgG-PE antibody for detection.

[7] = target: T2, HLA-PEPTIDE target A*01:01_… (G2) on …; assay: flow cytometry, anti IgG PE, A375 9mer cells (1e6 copies of G2 pHLA per cell)
[8] = target: T2, HLA-PEPTIDE target A*01:01_… (G2) on …; assay: cell-based or functional assay
[9] = target: T2, HLA-PEPTIDE target A*01:01_… (G2) on …; assay: flow cytometry, K562-HLA cells pulsed with peptide
[10] = target: T6, A*01:01 with … (V or E 1) on pulsed K562-HLA cells (human); assay: flow cytometry, K562-HLA cells pulsed with peptide
T6 construct: whole, on cells

[11] = target: T7, A*01:01 with … (V or E 3) on pulsed K562-HLA cells (human); assay: flow cytometry, K562-HLA cells pulsed with peptide
T7 construct: whole, on cells

[12] = target: T8, A*01:01 with … (V or E 5) on pulsed K562-HLA cells (human); assay: flow cytometry, K562-HLA cells pulsed with peptide
T8 construct: whole, on cells

[13] = target: T9, A*01:01 with … (V or E 6) on pulsed K562-HLA cells (human); assay: flow cytometry, K562-HLA cells pulsed with peptide
T9 construct: whole, on cells

[14] = target: T10, A*01:01 with … (V or E 2) on pulsed K562-HLA cells (human); assay: flow cytometry, K562-HLA cells pulsed with peptide
T10 construct: whole, on cells

[15] = target: T11, A*01:01 with … (V or E 4) on pulsed K562-HLA cells (human); assay: flow cytometry, K562-HLA cells pulsed with peptide
T11 construct: whole, on cells

[16] = target: T12, G5 pHLA (HLA-B*35:01 with …) on cells (human); assay: flow cytometry, peptide-pulsed cells
T12 construct: whole, on cells
Experimental: (§3) HLA-transduced K562 cells were pulsed the night before with 50 μM of peptide (Genscript) in IDMEM containing 1% FBS in 6 well plates and incubated under standard tissue culture conditions. Cells were harvested, washed in PBS, and stained with eBioscience Fixable Viability Dye eFluor 450 for 15 minutes at room temperature. […] After another wash, PE-conjugated goat anti-human IgG secondary antibody (Jackson ImmunoResearch) was added at 1:100. After incubating at 4° C. for 45 minutes and washing in PBS+2% FBS, cells were resuspended in PBS+2% FBS and analyzed by flow cytometry. Flow cytometric analysis was performed on the Attune NxT Flow Cytometer (ThermoFisher) using the Attune NxT Software. Data was analyzed using FlowJo.

[17] = target: T2, HLA-PEPTIDE target A*01:01_… (G2) on …; assay: flow cytometry, anti-IgG PE, K562-A01:01 cells pulsed with peptide (20,000 to 40,000 copies/cell)
Experimental: as §3

[18] = target: T13, off-target HLA-A*01:01_… (KDM7A) on cells (human); assay: as above
T13 construct: whole, on cells; also called validated OTLA; Control peptide-4
Experimental: as §3

[19] = target: T2, HLA-PEPTIDE target A*01:01_… (G2) on …; assay: flow cytometry, anti IgG PE, A375 9mer cells (1e6 copies per cell)
Experimental: (§4) A375 transduced with luciferase alone served as the negative control. […] Binding was determined by flow cytometery using an anti IgG-PE antibody for detection.

[20] = target: T2, HLA-PEPTIDE target A*01:01_… (G2) on …; assay: flow cytometry, anti-IgG PE, peptide-pulsed K562 cells
Experimental: as §3

[21] = target: T2, HLA-PEPTIDE target A*01:01_… (G2) on …; assay: IP-MS, NCI-H1703 lysate, Rep2
Experimental: as §1, §2

[22] = target: T1, HLA-A*01:01 with … (ERGIC3) from cells; assay: IP-MS, NCI-H1703 lysate, Rep2
Experimental: as §1, §2

[23] = target: T3, off-target HLA-A*01:01_… (ICE1) on cells; assay: IP-MS, NCI-H1703 lysate, Rep2
Experimental: as §1, §2

[24] = target: T4, off-target HLA-A*01:01_… (PTS) on cells; assay: IP-MS, NCI-H1703 lysate, Rep2
Experimental: as §1, §2

[25] = target: T14, refolded A*01:01/b2m complex with the ROBO1 peptide … (human, UniProt P61769 21-119); assay: Octet biolayer interferometry, 120 s association and 120 s dissociation
T14 construct: also called ROBO1 pHLA complex

[26] = target: T15, biotinylated refolded G2-pHLA (A*01:01/b2m/…) (human, biotinylated at the C-terminal AviTag); assay: as above
T15 construct: Soluble complex caught on streptavidin sensors or MSD plates; also called G2-peptide A*01:01/b2m complex; WT

CD3 on CD3+ Jurkat cells [27] = target: T5, CD3 on CD3+ Jurkat cells; assay: flow cytometry, anti IgG PE, CD3+ Jurkat cells; remark: listed apart in the source
[28] = target: T14, refolded A*01:01/b2m complex with the …; assay: BLI (Octet), refolded pHLA
[29] = target: T2, HLA-PEPTIDE target A*01:01_… (G2) on …; assay: flow cytometry, anti IgG PE, A375 9mer cells (1e6 copies per cell); remark: listed apart in the source
Experimental: as §4

T5 sequence (P07766 23-207): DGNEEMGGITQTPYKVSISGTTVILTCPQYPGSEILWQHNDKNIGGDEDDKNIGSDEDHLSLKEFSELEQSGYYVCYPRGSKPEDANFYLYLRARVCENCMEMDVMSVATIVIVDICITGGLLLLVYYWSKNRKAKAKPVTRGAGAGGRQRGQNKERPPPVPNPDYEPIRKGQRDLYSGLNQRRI

B1: 41-E07 hOKT3a diabody (Format 41 31E07-CD3 bispecific antibody) (bispecific antibody, human IgG1, kappa)
chain: QVQLVQSGAEVKKPGASVKVSCKASGFTFTNYLIHWVRQAPGQGLEWMGWINPNSGGTNYAQRLQGRVTMTRDTSTSTVYMELSSLRSEDTAVYYCARDYGAGNDYWGQGTLVTVSSGGGGSGGGGSDIQMTQSPSSLSASVGDRVTITCRASQEIRRWLAWYQQKPGKAPKLLIYAASNLQSGVPSRFSGSGSGTDFTLTISSLQPEDFATYYCQQSYSTPYTFGQGTKLEIKGGGGSEPKSSDKTHTCPPCPAPEFEGGPSVFLFPPKPKDTLMISRTPEVTCVVVDVSHEDPEVKFNWYVDGVEVHNAKTKPREEQYNSTYRVVSVLTVLHQDWLNGKEYKCKVSNKALPASIEKTISKAKGQPREPQVYTLPPCREEMTKNQVSLWCLVKGFYPSDIAVEWESNGQPENNYKTTPPVLDSDGSFFLYSKLTVDKSRWQQGNVFSCSVMHEALHNHYTQKSLSLSPGK
heavy: QVQLVQSGAEVKKPGASVKVSCKASGFTFTNYLIHWVRQAPGQGLEWMGWINPNSGGTNYAQRLQGRVTMTRDTSTSTVYMELSSLRSEDTAVYYCARDYGAGNDYWGQGTLVTVSSGGGGSGGGGSDIQMTQSPSSLSASVGDRVTITCRASQEIRRWLAWYQQKPGKAPKLLIYAASNLQSGVPSRFSGSGSGTDFTLTISSLQPEDFATYYCQQSYSTPYTFGQGTKLEIKGGGGSGGGGSQVQLVQSGAEVKKPGASVKVSCKASGYTFTRYTMHWVRQAPGQGLEWMGYINPSRGYTNYNQKFKDRVTLTTDKSSSTAYMELSSLRSEDTAVYYCARYYDDHYSLDYWGQGTLVTVSSASTKGPSVFPLAPSSKSTSGGTAALGCLVKDYFPEPVTVSWNSGALTSGVHTFPAVLQSSGLYSLSSVVTVPSSSLGTQTYICNVNHKPSNTKVDKRVEPKSCDKTHTCPPCPAPEFEGGPSVFLFPPKPKDTLMISRTPEVTCVVVDVSHEDPEVKFNWYVDGVEVHNAKTKPREEQYNSTYRVVSVLTVLHQDWLNGKEYKCKVSNKALPASIEKTISKAKGQPREPQVCTLPPSREEMTKNQVSLSCAVKGFYPSDIAVEWESNGQPENNYKTTPPVLDSDGSFFLVSKLTVDKSRWQQGNVFSCSVMHEALHNRFTQKSLSLSPGK
light: DIQMTQSPSSLSASVGDRVTITCSASSSVSYMNWYQQKPGKAPKRLIYDTSKLASGVPSRFSGSGSGTDFTLTISSLQPEDFATYYCQQWSSNPFTFGQGTKLEIKRTVAAPSVFIFPPSDEQLKSGTASVVCLLNNFYPREAKVQWKVDNALQSGNSQESVTEQDSKDSTYSLSSTLTLSKADYEKHKVYACEVTHQGLSSPVTKSFNRGEC
notes: also called E07-CD3 diabody; 41-31E07-hOKT3a
binding result [1]: no binding
copies per cell of the peptide recovered by immunoprecipitation [2]: 2960 copies per cell
copies per cell of the peptide recovered by immunoprecipitation [3]: 34 copies per cell
copies per cell of the peptide recovered by immunoprecipitation [4]: 33 copies per cell
copies per cell of the peptide recovered by immunoprecipitation [5]: 40 copies per cell
EC50 (read off the curve) (CD3 on CD3+ Jurkat cells [6]): ~20 nM
EC50 (read off the curve) [7]: ~3 nM
EC50 (ug/ml), luciferase-cytotoxicity assay with human T cells, A375-CT83 cells [8]: 0.00017 µg/mL
EC50 (ug/ml), luciferase-cytotoxicity assay with human T cells, NCI-H820 cells [8]: 0.077 µg/mL
EC50 (ug/ml), luciferase-cytotoxicity assay with human T cells, NCI-H1703 cells [8]: 0.0025 µg/mL
Max Binding [9]: 5560
Max Binding [10]: 1880
Max Binding [11]: 5680
Max Binding [12]: 2630
Max Binding [13]: 1400
Max Binding [14]: 4680
Max Binding [15]: 1560
log difference in EC50 against the G2 peptide [..] [16]: 3 log
EC50 (read off the curve) [17]: ~0.3 µg/mL
binding result [18]: no binding (tested: 100 ug/ml)
EC50 (read off the curve) [19]: ~2 nM
EC50 (read off the curve) [20]: ~0.06 µg/mL
copies per cell of the peptide recovered by immunoprecipitation [21]: 2960 copies per cell
copies per cell of the peptide recovered by immunoprecipitation [22]: 37 copies per cell
copies per cell of the peptide recovered by immunoprecipitation [23]: 32 copies per cell
copies per cell of the peptide recovered by immunoprecipitation [24]: 42 copies per cell

B2: 41-E07 UCHT1v9 (Format 41 31E07-CD3 bispecific antibody) (bispecific antibody, human IgG1, kappa)
chain: QVQLVQSGAEVKKPGASVKVSCKASGFTFTNYLIHWVRQAPGQGLEWMGWINPNSGGTNYAQRLQGRVTMTRDTSTSTVYMELSSLRSEDTAVYYCARDYGAGNDYWGQGTLVTVSSGGGGSGGGGSDIQMTQSPSSLSASVGDRVTITCRASQEIRRWLAWYQQKPGKAPKLLIYAASNLQSGVPSRFSGSGSGTDFTLTISSLQPEDFATYYCQQSYSTPYTFGQGTKLEIKGGGGSEPKSSDKTHTCPPCPAPEFEGGPSVFLFPPKPKDTLMISRTPEVTCVVVDVSHEDPEVKFNWYVDGVEVHNAKTKPREEQYNSTYRVVSVLTVLHQDWLNGKEYKCKVSNKALPASIEKTISKAKGQPREPQVYTLPPCREEMTKNQVSLWCLVKGFYPSDIAVEWESNGQPENNYKTTPPVLDSDGSFFLYSKLTVDKSRWQQGNVFSCSVMHEALHNHYTQKSLSLSPGK
heavy: QVQLVQSGAEVKKPGASVKVSCKASGFTFTNYLIHWVRQAPGQGLEWMGWINPNSGGTNYAQRLQGRVTMTRDTSTSTVYMELSSLRSEDTAVYYCARDYGAGNDYWGQGTLVTVSSGGGGSGGGGSDIQMTQSPSSLSASVGDRVTITCRASQEIRRWLAWYQQKPGKAPKLLIYAASNLQSGVPSRFSGSGSGTDFTLTISSLQPEDFATYYCQQSYSTPYTFGQGTKLEIKGGGGSGGGGSEVQLVESGGGLVQPGGSLRLSCAASGYSFTGYTMNWVRQAPGKGLEWVALINPYKGVSTYNQKFKDRFTISVDKSKNTAYLQMNSLRAEDTAVYYCARSGYYGDSDWYFDVWGQGTLVTVSSASTKGPSVFPLAPSSKSTSGGTAALGCLVKDYFPEPVTVSWNSGALTSGVHTFPAVLQSSGLYSLSSVVTVPSSSLGTQTYICNVNHKPSNTKVDKRVEPKSCDKTHTCPPCPAPEFEGGPSVFLFPPKPKDTLMISRTPEVTCVVVDVSHEDPEVKFNWYVDGVEVHNAKTKPREEQYNSTYRVVSVLTVLHQDWLNGKEYKCKVSNKALPASIEKTISKAKGQPREPQVCTLPPSREEMTKNQVSLSCAVKGFYPSDIAVEWESNGQPENNYKTTPPVLDSDGSFFLVSKLTVDKSRWQQGNVFSCSVMHEALHNRFTQKSLSLSPGK
light: not shown
notes: also called 41-31E07-UCHT1v9; 41-E07 hUCHT1v9
EC50 (read off the curve) (CD3 on CD3+ Jurkat cells [6]): ~3 nM
Kd [25]: 5.52 nM
koff [25]: 0.00557 s⁻¹
kon [25]: 1.01e+06 M⁻¹ s⁻¹
Kd [26]: < 0.001 nM
koff [26]: < 1e-07 s⁻¹
kon [26]: 566000 M⁻¹ s⁻¹
EC50 (read off the curve) (CD3 on CD3+ Jurkat cells [27]): ~2 nM
times less binding affinity than to the G2-peptide A*01:01/b2m complex [28]: 5000 fold
EC50 (read off the curve) [29]: ~2 nM
EC50 (read off the curve) [19]: ~2 nM
